Values quoted from earlier work, collected in patent US6319955A, “Use of MEK1 inhibitors as protective agents against damage due to ischemia” (priority 2000, dated 2001).

Details: compared with native tPA

B1: C84S tPA (protein, UniProt P00750 36-562, looked up, variant C84S)
Tissue-type plasminogen …: SYQVICRDEKTQMIYQQHQSWLRPVLRSNRVEYCWCNSGRAQCHSVPVKSCSEPRCFNGGTCQQALYFSDFVCQCPEGFAGKCSEIDTRATCYEDQGISYRGTWSTAESGAECTNWNSSALAQKPYSGRRPDAIRLGLGNHNYCRNPDRDSKPWCYVFKAGKYSSEFCSTPACSEGNSDCYFGNGSAYRGTHSLTESGASCLPWNSMILIGKVYTAQNPSAQALGLGKHNYCRNPDGDAKPWCHVLKNRRLTWEYCDVPSCSTCGLRQYSQPQFRIKGGLFADIASHPWQAAIFAKHRRSPGERFLCGGILISSCWILSAAHCFQERFPPHHLTVILGRTYRVVPGEEEQKFEVEKYIVHKEFDDDTYDNDIALLQLKSDSSRCAQESSVVRTVCLPPADLQLPDWTECELSGYGKHEALSPFYSERLKEAHVRLYPSSRCTSQHLLNRTVTDNMLCAGDTRSGGPQANLHDACQGDSGGPLVCLNDGRMTLVGIISWGLGCGQKDVPGVYTKVTNYLDWIRDNMRP
- in vivo half life, in words: longer in vivo half life than native tPA
